In PMC9342900, “Cryo-EM structures of the Synechocystis sp. PCC 6803 cytochrome b6f complex with and without the regulatory PetP subunit” (Biochemical Journal, 2022):
Values belong to the molecule of their own block, whether it stands above or below them.

B2: N-terminally hexa-Histidine (His)-tagged PetP (natural protein, Synechocystis sp. PCC 6803)
chain: MTIEIGQKVKVYRLRDRVSPDVVGKLGKVGVVKDFKMTDGSGIGAVVSFDDRTATWFFEDELKAI
notes: PetP, Synechocystis sp; PCC 6803, gene petP (ssr2998), codon optimized for E. coli, cloned into the NdeI and XhoI sites of pET28a(+); About 10 kDa protein; The vector pET28a(+) adds further residues between the His tag and the NdeI site; also called His-PetP; His6-tagged PetP; source: E. coli BL21(DE3), purified (HisTrap IMAC, PD-10 desalting); not shown: His6, N-terminal, kept

Experiments:
[1] = biological target: T1, Synechocystis cytb6f-PetP complex (cytochrome b6 / subunit IV core) (Synechocystis sp. PCC 6803, UniProt P27589+Q57038); assay: cryo-EM structure, […] Å; type: binding; conditions: Qn site, one PQ per monomer near heme cn; native co-purified; with PetP
T1 construct: gene petB; native dimeric complex from Synechocystis thylakoids in GDN, cytochrome f with C-terminal Ser-Ala-Strep-tag II; reconstituted with His6-PetP from E. coli; with Cytochrome f; Cytochrome b6-f complex iron-sulfur subunit; Cytochrome b6-f complex subunit 5; Cytochrome b6-f complex subunit 6; Cytochrome b6-f complex subunit 7; Cytochrome b6-f complex subunit 8; Cytochrome b6f regulatory subunit PetP

[2] = biological target: T2, Synechocystis cytb6f complex (carotenoid site) (Synechocystis sp. PCC 6803, UniProt P0DXY4+P74149+P74810+Q57038); assay: cryo-EM structure; HPLC of extracted pigments; type: binding; conditions: native co-purified; 9-cis configuration suggested
T2 construct: gene petB; same complex as P1; with Cytochrome b6-f complex subunit 4; Cytochrome f; Cytochrome b6-f complex iron-sulfur subunit; Cytochrome b6-f complex subunit 8; Cytochrome b6f regulatory subunit PetP

[3] = biological target: T3, Synechocystis cytb6f-PetP complex (Rieske ISP subunit) (Synechocystis sp. PCC 6803, UniProt P26290); assay: cryo-EM structure, […] Å; type: binding; conditions: native co-purified
T3 construct: gene petC1; same complex as P1; with Cytochrome b6; Cytochrome b6-f complex subunit 4; Cytochrome f; Cytochrome b6-f complex subunit 5; Cytochrome b6-f complex subunit 6; Cytochrome b6-f complex subunit 7; Cytochrome b6-f complex subunit 8; Cytochrome b6f regulatory subunit PetP
T3 sequence (P26290 2-180): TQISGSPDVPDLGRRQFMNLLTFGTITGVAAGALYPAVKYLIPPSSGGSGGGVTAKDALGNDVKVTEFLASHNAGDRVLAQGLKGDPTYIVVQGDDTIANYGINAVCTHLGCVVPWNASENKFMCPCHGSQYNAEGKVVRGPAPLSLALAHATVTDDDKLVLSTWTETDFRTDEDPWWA

[4] = biological target: Synechocystis sp. PCC 6803 cytochrome b6f complex with C-terminally StrepII-tagged PetA, purified dimer (Synechocystis sp. PCC 6803) (UniProt P26287); assay: cryo-EM structure; cytb6f without PetP, 17 uM, in GDN; 3.15 A
[5] = biological target: Synechocystis sp. PCC 6803 cytochrome b6f complex with C-terminally StrepII-tagged PetA, purified dimer (Synechocystis sp. PCC 6803) (UniProt P26287); assay: cryo-EM structure; reconstituted cytb6f-PetP complex, 20 uM, in buffer D with GDN; 2.80 A
[6] = biological target: Synechocystis sp. PCC 6803 cytochrome b6f complex with C-terminally StrepII-tagged PetA, purified dimer (Synechocystis sp. PCC 6803) (UniProt P26287); assay: native gel or EMSA; BN-PAGE on NativePAGE 3-12% Bis-Tris gels, Coomassie stain; purified cytb6f and cytb6f-PetP; dimer against monomer of the complex
[7] = biological target: B2; assay: cryo-EM structure; reconstituted cytb6f-PetP complex, 20 uM, in buffer D with GDN; 2.80 A; conditions: both partners purified
[8] = biological target: T4, subunit IV of the Synechocystis cytb6f complex (Synechocystis sp. PCC 6803, UniProt P27589 1-160); assay: as above; conditions: both partners purified
T4 construct: subunit IV, Synechocystis sp; PCC 6803, endogenous subunit of cytb6f; Stood in the structure as a subunit of m2; also called subIV; source: Synechocystis PetA-StrepII strain, purified as part of cytb6f (StrepTrap HP, SEC)
T4 sequence: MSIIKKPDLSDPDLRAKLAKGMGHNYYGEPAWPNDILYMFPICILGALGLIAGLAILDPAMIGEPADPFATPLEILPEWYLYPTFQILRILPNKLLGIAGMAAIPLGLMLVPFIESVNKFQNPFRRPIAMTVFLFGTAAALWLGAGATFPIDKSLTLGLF

[9] = biological target: T5, cytochrome b6 subunit of the Synechocystis cytb6f complex (Synechocystis sp. PCC 6803, UniProt Q57038 1-222); assay: as above; conditions: both partners purified
T5 construct: cytochrome b6, Synechocystis sp; PCC 6803, endogenous subunit of cytb6f; Stood in the structure as a subunit of m2; source: Synechocystis PetA-StrepII strain, purified as part of cytb6f (StrepTrap HP, SEC)
T5 sequence: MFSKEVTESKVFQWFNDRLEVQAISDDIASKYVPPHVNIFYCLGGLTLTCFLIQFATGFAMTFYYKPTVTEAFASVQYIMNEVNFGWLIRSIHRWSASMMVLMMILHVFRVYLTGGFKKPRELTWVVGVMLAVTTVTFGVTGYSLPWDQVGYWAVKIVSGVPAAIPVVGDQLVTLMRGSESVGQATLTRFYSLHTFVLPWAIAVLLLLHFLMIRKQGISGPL

Molecule: CC(C)=CCC/C(C)=C/CC/C(C)=C/CC/C(C)=C/CC/C(C)=C/CC/C(C)=C/CC/C(C)=C/CC/C(C)=C/CC/C(C)=C/CC1=CC(=O)C(C)=C(C)C1=O [PQ, plastoquinone]
cryo-EM structure, 2.80 Å [1]: resolves two native PQ molecules, one bound at each Qn site within the dimer

Molecule: CC1=C(/C=C/C(C)=C/C=C/C(C)=C/C=C/C=C(C)/C=C/C=C(C)/C=C/C2=C(C)C(=O)CCC2(C)C)C(C)(C)CCC1 [echinenone]
cryo-EM structure; HPLC of extracted pigments [2]: clear density for the ketone group on the end ring of echinenone

Molecule: [S]1[Fe][S][Fe]1 [2Fe-2S cluster]
cryo-EM structure, 2.80 Å [3]: the 2Fe-2S cluster (orange Fe and yellow S)

stoichiometry N [4]: 2
stoichiometry N [5]: 2
stoichiometry N [6]: 2
Molecule: Synechocystis sp. PCC 6803 cytochrome b6f complex with C-terminally StrepII-tagged PetA, purified dimer (from UniProt P26287 45-328; Q57038 1-222; P27589 1-160; P74149 1-38; P74810 1-36; P72717 1-29)

binding result [7]: binds
B1: PetG subunit of the Synechocystis cytb6f complex (natural protein, Synechocystis sp. PCC 6803)
chain: MIEPLLLGIVLGLIPVTLAGLFVAAYLQYKRGNQFNLD
notes: PetG, Synechocystis sp; PCC 6803, endogenous subunit of cytb6f; Stood in the structure as a subunit of m2; source: Synechocystis PetA-StrepII strain, purified as part of cytb6f (StrepTrap HP, SEC)

Molecule: B2
binding result [8]: binds
binding result [9]: binds
